# Assay results as given in patent publication USRE49847 (dated 2024).
# T1: soluble CD22-Fc (R&D Systems) (UniProt P20273 20-687)
# T1 construct: Bought reagent used to stain CD22 CARs; not shown: Fc part; detected with anti-human IgG Fc-gamma secondary
# T1 sequence (looked up): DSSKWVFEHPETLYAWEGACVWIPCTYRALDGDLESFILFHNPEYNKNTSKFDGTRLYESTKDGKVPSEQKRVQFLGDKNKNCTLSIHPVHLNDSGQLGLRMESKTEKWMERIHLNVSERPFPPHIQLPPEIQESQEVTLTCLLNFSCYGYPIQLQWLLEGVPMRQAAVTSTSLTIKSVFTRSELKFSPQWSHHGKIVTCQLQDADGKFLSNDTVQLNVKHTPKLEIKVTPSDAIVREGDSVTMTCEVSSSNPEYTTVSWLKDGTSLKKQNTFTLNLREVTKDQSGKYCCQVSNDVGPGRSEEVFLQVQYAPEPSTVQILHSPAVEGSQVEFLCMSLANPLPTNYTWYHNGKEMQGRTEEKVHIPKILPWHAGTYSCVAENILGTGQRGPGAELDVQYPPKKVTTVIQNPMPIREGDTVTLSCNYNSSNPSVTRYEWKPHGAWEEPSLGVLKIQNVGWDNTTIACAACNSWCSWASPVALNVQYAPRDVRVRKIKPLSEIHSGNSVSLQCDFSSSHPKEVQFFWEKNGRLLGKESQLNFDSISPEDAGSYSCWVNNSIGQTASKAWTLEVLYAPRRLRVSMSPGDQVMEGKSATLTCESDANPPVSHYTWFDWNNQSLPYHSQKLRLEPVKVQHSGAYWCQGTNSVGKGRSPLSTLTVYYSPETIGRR
# Target: T1, soluble CD22-Fc (R&D Systems)
# Experiment: FACS surface staining of transduced JNL cells with CD22-Fc
row,Binder,binding result
1,"control anti-CD22 CAR CG#c176 (other, not shown: hinge, transmembrane, 4-1BB and CD3zeta parts of the CAR) QSALTQPASASGSPGQSVTISCTGTSSDVGGYNYVSWYQQHPGKAPKLMIYDVSNRPSGVSNRFSGSKSGNTASLTISGLQAEDEADYYCSSYTSSSTLYVFGTGTQLTVLGGGGSEVQLQQSGPGLVKPSQTLSLTCAISGDSMLSNSDTWNWIRQSPSRGLEWLGRTYHRSTWYDDYASSVRGRVSINVDTSKNQYSLQLNAVTPEDTGVYYCARVRLQDGNSWSDAFDVWGQGTMVTVSS",binds

# Target: T1, soluble CD22-Fc (R&D Systems)
# Experiment: flow cytometry, soluble CD22-Fc plus anti-human Fc-PE on CAR-transduced primary T cells (FIG. 4)
row,Binder,MFI
1,"CD22-62 CAR (other, CAR on primary human T cells; not shown: hinge, transmembrane, 4-1BB and CD3zeta parts of the CAR) EVQLQQSGPGLVKPSQTLSLTCAISGDSVLSNSDTWNWIRQSPSRGLEWLGRTYHRSTWYDDYASSVRGRVSINVDTSKNQYSLQLNAVTPEDTGVYYCARDRLQDGNSWSDAFDVWGQGTMVTVSSGGGGSGGGGSGGGGSQSALTQPASVSGSPGQSITISCTGTSSDVGGYNYVSWYQQHPGKAPKLMIYDVSNRPSGVSNRFSGSKSGNTASLTISGLQAEDEADYYCSSYTSSSTLYVFGTGTKVTVL",> 20000
2,"CD22-59 CAR (other, CAR on primary human T cells; not shown: hinge, transmembrane, 4-1BB and CD3zeta parts of the CAR) EVQLQQSGPGLVKPSQTLSLTCAISGDSVLSNSDTWNWIRQSPSRGLEWLGRTYHRSTWYDDYASSVRGRVSINVDTSKNQYSLQLNAVTPEDTGVYYCARDRLQDGNSWSDAFDVWGQGTMVTVSSGGGGSGGGGSGGGGSQSALTQPASVSGSPGQSITISCTGSSSDIGGFNYVSWYQQHAGEAPKLMIYEVTNRPSGVSDRFSGSKSDNTASLTISGLQAEDEADYYCSSYASGSPLYVFGTGTKVTVL",> 20000
3,"CD22-60 CAR (other, CAR on primary human T cells; not shown: hinge, transmembrane, 4-1BB and CD3zeta parts of the CAR) EVQLQQSGPGLVKPSQTLSLTCAISGDSVLSNSDTWNWIRQSPSRGLEWLGRTYHRSTWYDDYASSVRGRVSINVDTSKNQYSLQLNAVTPEDTGVYYCARDRLQDGNSWSDAFDVWGQGTMVTVSSGGGGSGGGGSGSGGSQSALTQPASVSGSPGQSITFSCTGTSSDIGGYNYVSWYQQHPGKAPKLMIYEVSNRPSGVSNRFSGTKSGNTASLTISGLQAEDEADYYCSSYTSSSTLYVFGTGTKLTVL",> 20000
4,"CD22-61 CAR (other, CAR on primary human T cells; not shown: hinge, transmembrane, 4-1BB and CD3zeta parts of the CAR) QVQLQESGPGLVKPSQTLSLTCAISGDSVLSNSDTWNWIRQSPSRGLEWLGRTYHRSTWYDDYASSVRGRVSINVDTSKNQYSLQLNAVTPEDTGVYYCARDRLQDGNSWSDAFDVWGQGTMVTVSSGGGGSGGGGSGSGGSQSALTQPASVSGSPGQSITISCTGTSSDVGGYNYVSWYQQHPGKAPKLMIYEVSNRPSGVSNRFSGSKSGNTASLTISGLQAEDEADYYCSSYTSSSTLYVFGTGTKVTVL",> 20000
5,"CD22-63 CAR (other, CAR on primary human T cells; not shown: hinge, transmembrane, 4-1BB and CD3zeta parts of the CAR) EVQLQQSGPGLVKPSQTLSLTCAISGDSVLSNSDTWNWIRQSPSRGLEWLGRTYHRSTWYDDYASSVRGRVSINVDTSKNQYSLQLNAVTPEDTGVYYCARDRLQDGNSWSDAFDVWGQGTMVTVSSGGGGSGGGGSGGGGSQSALTQPASVSGSPGQSITISCTGTSSDVGGYNYVSWYQQHPGKAPKLMIYEVSNRPSGVSNRFSGSKSGNTASLTISGLQAEDEADYYCSSYTSSSTLYIFGTGTKVTVL",> 20000
6,"CD22-64 CAR (other, CAR on primary human T cells; not shown: hinge, transmembrane, 4-1BB and CD3zeta parts of the CAR) EVQLQQSGPGLVKPSQTLPLTCAISGDSVLSNSDTWNWIRQSPSRGLEWLGRTYHRSTWYDDYASSVRGRVSINVDTSKNQYSLQLNAVTPEDTGVYYCARVRLQDGNSWSDAFDVWGQGTMVTVSSGGGGSGGGGSGGGGPQSALTQPASASGSPGQSVTISCTGTSSDVGGYNYVSWYQQHPGKAPKLMIYDVSNRPSGVSNRFSGSKSGNTASLTISGLQAEDEADYYCSSYTSSSTLYVFGTGTQLTVL",> 20000
7,"CD22-65 CAR (other, also called CD22-65_Zmut) EVQLQQSGPGLVKPSQTLSLTCAISGDSMLSNSDTWNWIRQSPSRGLEWLGRTYHRSTWYDDYASSVRGRVSINVDTSKNQYSLQLNAVTPEDTGVYYCARVRLQDGNSWSDAFDVWGQGTMVTVSSGGGGSGGGGSGGGGSQSALTQPASASGSPGQSVTISCTGTSSDVGGYNYVSWYQQHPGKAPKLMIYDVSNRPSGVSNRFSGSKSGNTASLTISGLQAEDEADYYCSSYTSSSTLYVFGTGTQLTVLTTTPAPRPPTPAPTIASQPLSLRPEACRPAAGGAVHTRGLDFACDIYIWAPLAGTCGVLLLSLVITLYCKRGRKKLLYIFKQPFMRPVQTTQEEDGCSCRFPEEEEGGCELRVKFSRSADAPAYKQGQNQLYNELNLGRREEYDVLDKRRGRDPEMGGKPRRKNPQEGLYNELQKDKMAEAYSEIGMKGERRRGKGHDGLYQGLSTATKDTYDALHMQALPPR",> 20000
8,"CD22-53 CAR (other, Control CD22 CAR; not shown: hinge, transmembrane, 4-1BB and CD3zeta parts of the CAR) EVQLQQSGPGLVKPSQTLSLTCAISGDSVSSNSAAWNWIRQSPSRGLEWLGRTYYRSKWYSDYAVSVKSRITINPDTSKNQFSLQLNSVTPEDTAVYYCARDPYDFWSGYPDAFDIWGQGTMVTVSSGGGGSGGGGSGGGGSQSALTQPASVSGSPGQSITISCTGTSSDVGGYNYVSWYQQHPGKAPKVIISEVNNRPSGVSHRFSGSKSGNTASLTISGLQAEDEADYFCSSYTSGRTLYVFGTGSKVTVLG",> 20000
9,"CD22-58 CAR (other, CAR on primary human T cells; not shown: hinge, transmembrane, 4-1BB and CD3zeta parts of the CAR) EVQLQQSGPGLVNPSQTLSITCAISGDSVSSNSAAWNWIRQSPSRGLEWLGRTFYRSKWYNDYAVSVKGRITISPDTSKNQFSLQLNSVTPEDTAVYYCAGGDYYYGLDVWGQGTTVTVSSGGGGSGGGGSGGGGSQSALTQPASVSGSPGQSITISCTGSSSDVGGYNSVSWYQQHPGKAPKLMIYEVINRPSGVSHRFSGSKSGNTASLTISGLQAEDEADYYCSSYTSSSTYVFGTGTKVTVL",5700
10,"CD22-57 CAR (other, CAR on primary human T cells; not shown: hinge, transmembrane, 4-1BB and CD3zeta parts of the CAR) EVQLQQSGPGLVKPSQTLSLTCAISGDSVSNNNAAWNWIRQSPSRGLEWLGRTYHRSTWYNDYVGSVKSRITINPDTSKNQFSLQLNSVTPEDTAVYYCARETDYGDYGAFDIWGQGTTVTVSSGGGGSGGGGSGGGGSQSALTQPASVSGSPGQSITISCTGSRNDIGAYESVSWYQQHPGNAPKLIIHGVNNRPSGVFDRFSVSQSGNTASLTISGLQAEDEADYYCSSHTTTSTLYVFGTGTKVTVL",> 20000
